Test results published in patent publication US20250215052A1, “INHIBITORS OF PICK1 AND USES THEREOF” (University of Copenhagen, priority 2018, published 2025).
Like-named read-outs stand apart in the source and are kept apart here.

Columns and labels:
[1] = biological target: T1, Protein Interacting with C Kinase-1 (PICK1), purified recombinant, Q9EP80; test: fluorescence polarization competition, tracer 5-FAM-TAT-C5, purified PICK1
[2] = biological target: T2, fluorescently labelled recombinant rat PICK1 (DY549-SNAP-PICK1) (rat), Q9EP80
T2 sequence (Q9EP80 whole entry): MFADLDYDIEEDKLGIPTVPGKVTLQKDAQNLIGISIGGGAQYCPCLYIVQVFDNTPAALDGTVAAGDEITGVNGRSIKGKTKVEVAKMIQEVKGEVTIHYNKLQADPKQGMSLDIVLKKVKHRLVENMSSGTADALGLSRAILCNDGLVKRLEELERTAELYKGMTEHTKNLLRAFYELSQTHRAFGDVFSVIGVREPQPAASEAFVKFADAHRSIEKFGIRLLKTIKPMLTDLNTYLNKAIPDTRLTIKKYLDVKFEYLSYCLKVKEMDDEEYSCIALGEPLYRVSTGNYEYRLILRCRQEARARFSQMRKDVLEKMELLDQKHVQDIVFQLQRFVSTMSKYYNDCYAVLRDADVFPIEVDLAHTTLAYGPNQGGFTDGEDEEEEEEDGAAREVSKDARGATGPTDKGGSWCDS

[3] = biological target: T1, Protein Interacting with C Kinase-1 …; test: fluorescence polarization competition, tracer 5FAM-TAT-(C5), purified PICK1
[4] = biological target: T2, fluorescently labelled recombinant rat …; test: SCMS, dissociation of PICK1 pre-bound to TacDAT C24 sheets by peptide

T1 sequence (Q9EP80 whole entry): as above

Row | Binder | Fold affinity change (vs TAT-P4-(C5)2) [1] [fold] | Ki [1] [nM] | IC50 [2] [nM] | Ki [3] [nM] | fold shift in affinity [3] [fold] | IC50 [4] [nM]
1 | TP10-P4-(C5)2 (modifications not checked) peptide 1: HWLKV peptide 2: […] | 0.5 | 7.8 |  |  |  | 
2 | TAT11-PEG4-(DATC5)2 (modifications not checked) peptide 1: HWLKV peptide 2: YGRKKRRQRRR | 1 | 4 | 7 | 6.6 | 301 | 1170
